Source: US20150017665A1, “Peptides and Methods for Detecting MPO-ANCA” (The University of North Carolina at Chapel Hill, priority 2012, published 2015)

What was measured:
[1] = tested on: mice; settings: Ooi et al. 2012; cited from earlier work
[2] = tested on: anti-MPO^447-459 autoantibody; assay: Epitope masking ELISA with ceruloplasmin and its fragments; assay type: binding, human; settings: ELISA
Source text: (§1) Serum proteins that bound immobilized MPO peptide aa447-459 were eluted and sequenced for identification. […] Sequenced on a 4800 MALDI TOF-TOF, the protein was identified as ceruloplasmin (CP), and confirmed by western blot analysis probed with a rabbit anti-human anti-CP polyclonal antibody (Abeam). Native CP was purchased (Enzo Life Science) and proteolytically digested in vitro by plasmin (Haemtech).
(§2) To isolate the putative serum factor, immobilized MPO aa447-459 peptide was used as bait to fish-out host proteins with binding capacity. […] However, the CP bound to aa447-459 was primarily a 50 kD protein on sodium dodecyl sulfate polyacrylamide gel electrophoresis (SDS-PAGE), while full length CP is 151 kD (FIG. 6D). An anti-ceruloplasmin western blot confirmed the fragment to be a portion of CP (FIG. 6E). To test the role of proteolytic cleavage in generating the blocking factor, a plasmin-generated fragment of CP (Kingston et al., Proc. Natl. Acad. Sci. USA 74:5377 (1977)) was tested for epitope masking capability (FIG. 6F).

[3] = tested on: MPO-ANCA IgG (polyclonal); assay: Effect of CP on binding of polyclonal MPO-ANCA Ig to native MPO (ELISA); parameters: species or system human; settings: MPO-ANCA IgG from four patients
Source text: as §2

[4] = biological target: T1, MPO peptide aa447-459 (Homo sapiens, UniProt P05164); assay: Serum proteins binding to immobilized MPO peptide aa447-459; settings: identified by mass spectrometry
T1 construct: made in house; host or cells: chemical synthesis (a peptide core is named only for the ELISA peptides)
Source text: as §1, §2

| effect on binding of polyclonal MPO-ANCA Ig to native MPO [3] | Molecule | induction of glomerulonephritis [1] | epitope masking capability [2] | epitope masking capability ([2]; listed as full-length CP) | binding to immobilized MPO aa447-459 peptide [4] |
| --- | --- | --- | --- | --- | --- |
| – | PRWNGEKLYQEARKIVGAMV (listed as Homo sapiens) [murine MPO peptide aa409-428] | induces glomerulonephritis in mice | – | – | – |
| unaffected | full length CP: full length ceruloplasmin, 151 kD, purchased (Enzo Life Science) (protein) KEKHYYIGIIETTWDYASDHGEKKLISVDTEHSNIYLQNGPDRIGRLYKKALYLQYTDETFRTTIEKPVWLGFLGPIIKAETGDKVYVHLKNLASRPYTFHSHGITYYKEHEGAIYPDNTTDFQRADDKVYPGEQYTYMLLATEEQSPGEGDGNCVTRIYHSHIDAPKDIASGLIGPLIICKKDSLDKEKEKHIDREFVVMFSVVDENFSWYLEDNIKTYCSEPEKVDKDNEDFQESNRMYSVNGYTFGSLPGLSMCAEDRVKWYLFGMGNEVDVHAAFFHGQALTNKNYRIDTINLFPATLFDAYMVAQNPGEWMLSCQNLNHLKAGLQAFFQVQECNKSSSKDNIRGKHVRHYYIAAEEIIWNYAPSGIDIFTKENLTAPGSDSAVFFEQGTTRIGGSYKKLVYREYTDASFTNRKERGPEEEHLGILGPVIWAEVGDTIRVTFHNKGAYPLSIEPIGVRFNKNNEGTYYSPNYNPQSRSVPPSASHVAPTETFTYEWTVPKEVGPTNADPVCLAKMYYSAVEPTKDIFTGLIGPMKICKKGSLHANGRQKDVDKEFYLFPTVFDENESLLLEDNIRMFTTAPDQVDKEDEDFQESNKMHSMNGFMYGNQPGLTMCKGDSVVWYLFSAGNEADVHGIYFSGNTYLWRGERRDTANLFPQTSLTLHMWPDTEGTFNVECLTTDHYTGGMKQKYTVNQCRRQSEDSTFYLGERTYYIAAVEVEWDYSPQREWEKELHHLQEQNVSNAFLDKGEFYIGSKYKKVVYRQYTDSTFRVPVERKAEEEHLGILGPQLHADVGDKVKIIFKNMATRPYSIHAHGVQTESSTVTPTLPGETLTYVWKIPERSGAGTEDSACIPWAYYSTVDQVKDLYSGLIGPLIVCRRPYLKVFNPRRKLEFALLFLVFDENESWYLDDNIKTYSDHPEKVNKDDEEFIESNKMHAINGRMFGNLQGLTMHVGDEVNWYLMGMGNEIDLHTVHFHGHSFQYKHRGVYSSDVFDIFPGTYQTLEMFPRTPGIWLLHCHVTDHIHAGMETTYTVLQNEDTKSG | – | did not | did not mask the epitope | identified by mass spectrometry as a binding partner |
